This note sets out measurements from patent US20260014211.

Series [1] deals with His-BcpT R199N.
Series [2] concerns His-BcpT R65N:R199N.
Series [3] relates to His-BcpT (recombinant N-terminal His-tagged BcpT without signal sequence).
Series [4] deals with His-BcpT R65N.

For Factor Xa, the “cleavage by FXa (Coomassie gel)” value is reported as “are not cleaved by FXa (other than releasing the His-tag)” in series [1], “are not cleaved by FXa (other than releasing the His-tag)” in series [2] and “is cleaved only at the R199 site” in series [4]. Also, in series [3], the “cleavage of His-tagged BcpT (Coomassie gel, N-terminal sequencing of fragments)” value is “FXa cleaves after R65 and R199 of two Leu-Thr-Arg (LTR) motifs”.

For the substance “doripain A activated with trypsin, DpnA(a)”, the “cleavage of BcpT site mutant (Western immunoblot)” value in series [1] is recorded as “both proteases can cleave BcpT^R199N at the R65 site, which FXa does not”. Also, in series [3], the “cleavage and activation of BcpT (Coomassie gel, agar overlay)” value is “The active forms of both proteases cleave and activate BcpT”.

Regarding “doripain A, full-length recombinant proenzyme (not trypsin treated)”, in series [3], the “activation of BcpT (Coomassie gel, agar overlay)” value was “DpnA remains full-length and cannot activate BcpT”.

In the case of doripain B (DpnB), the “cleavage of BcpT site mutant (Western immunoblot)” value in series [1] is reported as “both proteases can cleave BcpT^R199N at the R65 site, which FXa does not”. In addition, the “cleavage and activation of BcpT (Coomassie gel, agar overlay)” value in series [3] was “The active forms of both proteases cleave and activate BcpT”.
